Positions of bridges follow the written chain, without caps; N, C: chain ends. Non-standard residues stand in square brackets, D forms with d. Residues, ends and D or L forms follow the SMILES beside them. hArg = N=C(N)NCCCC[C@H](N)C(=O)O; Mpa = O=C(O)CCS
How the values were obtained:
soluble integrin αIIbβ3 [1] = target: T1, soluble integrin αIIbβ3 (Homo sapiens, UniProt P05106+P08514); assay: ELISA-type integrin binding assay, soluble αIIbβ3; conditions: 1 mM Mn2+
T1 construct: Soluble recombinant αIIbβ3 or αvβ3 (AgroBio, 1 μg/ml); purchased AgroBio
Method: (§1) FIG. 2. PF4 specifically binds to soluble αIIbβ3 and αvβ3 in ELISA-type binding assays in 1 mM Mn^2+. FIG. 2a PF4 binds to soluble integrins in 1 mM Mn^2+ in ELISA-type binding assays. PF4 was immobilized to wells of 96-well microtiter plate and incubated with soluble αIIbβ3 or αvβ3 (1 μg/ml) in Tyrode-HEPES buffer with 1 mM Mn^2+ (to activate integrins) for 1 hr at room temperature and bound integrins were quantified using anti-β3 (mAb AV10) and HRP-conjugated anti-mouse IgG. Data are shown as means+/−SD in triplicate experiments. […] FIG. 2b Binding of authentic PF4 (Invitrogen) to integrins. Binding assays were performed as described in (a). PF4 (6.25 μg/ml) was used. Data are shown as means+/−SD in triplicate experiments. […] FIGS. 2c and d The binding of PF4 to integrins was suppressed by the distintegrin domain of ADAM15 fused to GST (ADAM15 disintegrin), but not by control GST. To establish the specificity of PF4 binding to soluble integrins αIIbβ3 (b) and αvβ3 (c), if ADAM15 disintegrin, which is known to bind to integrins αIIbβ3 (22) and αvβ3 (21), suppress the binding. […] Data are shown as means+/−SD in triplicate experiments. […] Bound integrins were quantified as described in (a). […]
(§2) Wells of 96-well microtiter plates were coated with PF4. […] Bound αIIbβ3 or αvβ3 was measured using anti-integrin β3 mAb (AV-10) followed by HRP-conjugated goat anti-mouse IgG and peroxidase substrates.

soluble integrin αvβ3 [2] = target: T2, soluble integrin αvβ3 (Homo sapiens, UniProt P05106+P06756); assay: ELISA-type integrin binding assay, soluble αvβ3; conditions: competitor 100 μg/ml; immobilized PF4 (12.5 g/ml); 1 mM Mn2+
T2 construct: Soluble recombinant αIIbβ3 or αvβ3 (AgroBio, 1 μg/ml); purchased AgroBio
T2 sequence (P06756 31-992 limits assumed): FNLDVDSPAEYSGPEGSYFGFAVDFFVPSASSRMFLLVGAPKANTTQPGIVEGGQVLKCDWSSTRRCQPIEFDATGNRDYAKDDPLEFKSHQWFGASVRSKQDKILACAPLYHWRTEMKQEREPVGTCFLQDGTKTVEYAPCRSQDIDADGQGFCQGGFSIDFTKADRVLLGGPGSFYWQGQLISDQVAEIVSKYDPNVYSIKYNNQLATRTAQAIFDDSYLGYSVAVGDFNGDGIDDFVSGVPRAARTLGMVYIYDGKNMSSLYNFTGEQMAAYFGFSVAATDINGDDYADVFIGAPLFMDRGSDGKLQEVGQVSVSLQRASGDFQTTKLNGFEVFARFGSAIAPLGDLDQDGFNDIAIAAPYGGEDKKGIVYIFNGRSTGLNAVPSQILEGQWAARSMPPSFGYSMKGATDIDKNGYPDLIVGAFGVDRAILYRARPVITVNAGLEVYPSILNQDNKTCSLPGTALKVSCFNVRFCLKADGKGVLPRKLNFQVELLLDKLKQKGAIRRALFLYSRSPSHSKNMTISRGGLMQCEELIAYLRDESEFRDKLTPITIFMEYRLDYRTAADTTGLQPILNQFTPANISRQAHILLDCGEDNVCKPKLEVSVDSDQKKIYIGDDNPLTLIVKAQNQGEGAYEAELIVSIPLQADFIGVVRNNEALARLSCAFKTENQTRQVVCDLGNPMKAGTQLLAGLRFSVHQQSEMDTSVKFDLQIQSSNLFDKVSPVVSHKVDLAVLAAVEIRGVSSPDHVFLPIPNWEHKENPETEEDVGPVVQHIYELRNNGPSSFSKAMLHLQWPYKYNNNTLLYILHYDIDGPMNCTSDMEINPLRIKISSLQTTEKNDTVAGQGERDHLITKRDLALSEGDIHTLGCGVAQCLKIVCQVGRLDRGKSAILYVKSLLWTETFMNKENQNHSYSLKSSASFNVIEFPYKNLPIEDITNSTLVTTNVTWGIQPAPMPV
T2 sequence (P05106 27-718 limits assumed): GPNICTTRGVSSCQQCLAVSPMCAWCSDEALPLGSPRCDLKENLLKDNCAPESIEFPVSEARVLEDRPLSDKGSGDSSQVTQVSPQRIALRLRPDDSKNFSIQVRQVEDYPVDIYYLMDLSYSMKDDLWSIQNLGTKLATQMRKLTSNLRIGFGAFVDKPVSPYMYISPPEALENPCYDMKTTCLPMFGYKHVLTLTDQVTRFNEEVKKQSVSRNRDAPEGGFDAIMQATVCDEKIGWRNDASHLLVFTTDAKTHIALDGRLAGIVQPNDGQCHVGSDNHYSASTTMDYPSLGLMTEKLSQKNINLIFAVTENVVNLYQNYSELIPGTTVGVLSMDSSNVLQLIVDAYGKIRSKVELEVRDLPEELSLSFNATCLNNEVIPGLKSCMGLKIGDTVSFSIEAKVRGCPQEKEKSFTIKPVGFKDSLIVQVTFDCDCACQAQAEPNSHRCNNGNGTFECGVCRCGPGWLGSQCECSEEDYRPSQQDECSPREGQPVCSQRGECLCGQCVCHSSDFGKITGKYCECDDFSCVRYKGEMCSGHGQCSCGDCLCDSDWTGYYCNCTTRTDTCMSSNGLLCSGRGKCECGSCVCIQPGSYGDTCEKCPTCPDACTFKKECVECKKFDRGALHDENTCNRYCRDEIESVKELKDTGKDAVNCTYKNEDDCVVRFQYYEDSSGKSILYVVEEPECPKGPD
Method: as §1, §2

[3] = target: T3, soluble recombinant integrin αvβ3 (UniProt P06756 31-992; P05106 27-718); assay: ELISA-type binding: immobilized PF4, soluble αvβ3 1 µg/ml, 1 mM Mn2+, detection with anti-β3 mAb AV10
T3 construct: Bought soluble heterodimer, used at 1 µg/ml; also called soluble αvβ3
T3 sequence (P06756 31-992, chain 1 of 2): as the sequence (P06756 31-992 limits assumed) above
T3 sequence (P05106 27-718, chain 2 of 2): as the sequence (P05106 27-718 limits assumed) above
Method: (§4) Data are shown as means+/−SD in triplicate experiments. […] Binding assays were performed as described in (a). […] Data are shown as means+/−SD in triplicate experiments. […] Data are shown as means+/−SD in triplicate experiments. […] Assays were performed as described in (a). Data is shown as means+/−SD in triplicate experiments. […] Wells were incubated with soluble integrins (1 μg/ml) in Tyrode-HEPES buffer with different cations (1 mM). Bound integrins were quantified as described in (a). Data are shown as means+/−SD in triplicate experiments.

[4] = target: T4, soluble recombinant integrin αIIbβ3 (UniProt P08514 32-993; P05106 27-718); assay: ELISA-type binding: immobilized PF4, soluble αIIbβ3 1 µg/ml, 1 mM Mn2+, detection with anti-β3 mAb AV10
T4 construct: Bought soluble heterodimer, used at 1 µg/ml; also called soluble αIIbβ3
Method: as §4

soluble integrin αvβ3 [5] = target: T2, soluble integrin αvβ3; assay: ELISA-type integrin activation assay, soluble αvβ3 binding to immobilized γC399tr; assay type: biochemical; conditions: for ability of PF4 mutant to mediate RTO/PF4-induced αvβ3 activation: PF4 mutant in complex with anti-PF4 RTO, 1 mM Ca2+
Method: FIG. 4. […] FIG. 4a. Anti-PF4 (RTO) markedly enhances PF4-induced activation of soluble αvβ3 in 1 mM Ca^2+ in ELISA-type activation assays. Fibrinogen fragment γC399tr (151-399 segment of fibrinogen γ chain, a specific ligand for αvβ3) was immobilized to wells of 96-well microtiter plate. […] Anti-PF4 (RTO or KKO, 10 μg/ml) were added (without heparin). After washing, bound integrins were quantified using anti-β3 (mAb AV10) and HRP-conjugated anti-mouse IgG. Mouse IgG (10 μg/ml) and no antibody were used as negative controls. […] FIG. 4b. […] Commercial PF4 was used instead of our own PF4 preparation. Activation assays were performed as described in a. […] FIG. 4c. Point mutations in the predicted integrin-binding site (site 2) of PF4 suppressed activation of αvβ3 by the anti-PF4/PF4 complex. […] FIG. 4d. The R20E/R22E/K46E/R49E mutant suppressed integrin activation by the RTO/PF4 complex. WT PF4 (0.5 μg/ml) and excess PF4 mutant (5 or 10 μg/ml) were used.
(§3) Wells of 96-well microtiter plates were coated with γC390-411 (a specific ligand for αIIbβ3) or γC399tr (a specific ligand for αvβ3). Remaining protein binding sites were blocked with BSA. Soluble recombinant αIIbβ3 or αvβ3 (AgroBio, 1 μg/ml) was pre-incubated with chemokines PF4 or anti-PF4/PF4 for 10 min at room temperature and was added to the wells and incubated in HEPES-Tyrodes buffer with 1 mM CaCl2 for 1 h at room temperature. After unbound αIIbβ3 or αvβ3 was removed by rinsing the wells with binding buffer, bound αIIbβ3 or αvβ3 was measured using anti-integrin B3 mAb (AV-10) followed by HRP-conjugated goat anti-mouse IgG and peroxidase substrates.

soluble integrin αIIbβ3 [6] = target: T1, soluble integrin αIIbβ3; assay: ELISA-type integrin activation assay, soluble αIIbβ3 binding to immobilized γC390-411; assay type: biochemical; conditions: for ability of PF4 mutant to mediate RTO/PF4-induced αIIbβ3 activation: PF4 mutant in complex with anti-PF4 RTO, 1 mM Ca2+
Method: FIG. 3. […] FIG. 3a. Anti-PF4 (RTO) markedly enhances PF4-induced activation of soluble αIIbβ3 in 1 mM Ca^2+ in ELISA-type activation assays in a dose-dependent manner at physiological concentrations of PF4 (below 1 μg/ml). The fibrinogen fragments γC390-411 (a specific ligand for αIIbβ3) was immobilized to wells of 96-well microtiter plate. […] Anti-PF4 (RTO or KKO, 10 μg/ml) were added (without heparin). After washing, bound integrins were quantified using anti-β3 (mAb AV10) and HRP-conjugated anti-mouse IgG. Mouse IgG (10 μg/ml) and no antibody were used as negative controls. Data are shown as means+/−SD in triplicate experiments. FIG. 3b. […] Commercial PF4 was used instead of our own PF4 preparation. Activation assays were performed as described in a. […] FIG. 3c. Point mutations in the predicted integrin-binding site (site 2) of PF4 suppressed activation of αIIbβ3 by the anti-PF4/PF4 complex. […] FIG. 3d. The R20E/R22E/K46E/R49E mutant suppressed integrin activation by the anti-PF4/PF4 complex. WT PF4 ([…]) and excess PF4 mutant (5 or 10 μg/ml) were used.
as §3

## N=C(N)NCCCC[C@@H]1NC(=O)CCSSC[C@@H](C(N)=O)NC(=O)[C@@H]2CCCN2C(=O)[C@H](Cc2c[nH]c3ccccc23)NC(=O)[C@H](CC(=O)O)NC(=O)CNC1=O [eptifibatide] ([Mpa][hArg]GDWPC-NH2; disulfide 1-7)
Soluble integrin αIIbβ3 [1]; PF4 coated at 50 μg/ml, mAb 7E3 10 μg/ml, eptifibatide 0.65 μg/ml, cyclic RGDfV 10 μM
  effect of integrin antagonists on PF4 binding to αIIbβ3: weak inhibition

## ADAM15 disintegrin: disintegrin domain of ADAM15 fused to GST, known to bind integrins αIIbβ3 and αvβ3
Soluble integrin αIIbβ3 [1]; competitor 100 μg/ml, immobilized PF4 (12.5 g/ml)
  suppression of αIIbβ3 binding to immobilized PF4: suppressed
Soluble integrin αvβ3 [2]
  suppression of αvβ3 binding to immobilized PF4: suppressed

B1: PF4 (platelet factor 4, chemokine CXCL4), preparation generated in the inventors' lab (ligand)
chain: EAEEDGDLQCLCVKTTSQVRPRHITSLEVIKAGPHCPTAQLIATLKNGRKICLDLQAPLYKKIIKKLLES
notes: Made in E. coli BL21 from pET28a as inclusion bodies, purified on Ni-NTA under denaturing conditions and renatured; also called WT PF4; wild-type PF4; not shown: Vector-derived N-terminal tag and leader of pET28a (His tag used for Ni-NTA purification, BamHI/EcoRI insert)
[3]
  Kd: < 1 µg/mL
[4]
  Kd: < 1 µg/mL

B2: R20E/R22E/K46E/R49E: PF4 (SEQ ID NO: 1) quadruple mutant defective in site 2 binding; dominant-negative antagonist (protein)
chain: EAEEDGDLQCLCVKTTSQVEPEHITSLEVIKAGPHCPTAQLIATLENGEKICLDLQAPLYKKIIKKLLES
modifications: Description ofsequence: PF4 sp|P02776|32-101
notes: dominant-negative antagonist
Soluble integrin αvβ3 [5]
  ability of PF4 mutant to mediate RTO/PF4-induced αvβ3 activation: most effectively reduced
Soluble integrin αvβ3 [5]; WT PF4 (0.5 μg/ml) and excess PF4 mutant (5 or 10 μg/ml), RTO
  suppression of αvβ3 activation by the RTO/PF4 complex (antagonist effect): suppressed
Soluble integrin αIIbβ3 [6]
  ability of PF4 mutant to mediate RTO/PF4-induced αIIbβ3 activation: most effectively reduced
Soluble integrin αIIbβ3 [6]; WT PF4 (0.5 g/ml) and excess PF4 mutant (5 or 10 μg/ml), RTO
  suppression of αIIbβ3 activation by the anti-PF4/PF4 complex (antagonist effect): suppressed

B3: K46E/R49E: PF4 (SEQ ID NO: 1) double mutant, Lys46 and Arg49 mutated to Glu (protein)
chain: EAEEDGDLQCLCVKTTSQVRPRHITSLEVIKAGPHCPTAQLIATLENGEKICLDLQAPLYKKIIKKLLES
modifications: Description ofsequence: PF4 sp|P02776|32-101
Soluble integrin αvβ3 [5]
  ability of PF4 mutant to mediate RTO/PF4-induced αvβ3 activation: reduced ability
Soluble integrin αIIbβ3 [6]
  ability of PF4 mutant to mediate RTO/PF4-induced αIIbβ3 activation: reduced ability

B4: R20E/R22E: PF4 (SEQ ID NO: 1) double mutant, Arg20 and Arg22 mutated to Glu (protein)
chain: EAEEDGDLQCLCVKTTSQVEPEHITSLEVIKAGPHCPTAQLIATLKNGRKICLDLQAPLYKKIIKKLLES
modifications: Description ofsequence: PF4 sp|P02776|32-101
Soluble integrin αvβ3 [5]
  ability of PF4 mutant to mediate RTO/PF4-induced αvβ3 activation: reduced ability
Soluble integrin αIIbβ3 [6]
  ability of PF4 mutant to mediate RTO/PF4-induced αIIbβ3 activation: reduced ability

Reference: US20250003978A1, “DIAGNOSIS AND TREATMENT OF ANTI-PF4 INDUCED THROMBOCYTOPENIA” (The Regents of the University of California, priority 2021, published 2025)
